# Laboratory results as given in the nanobody polyreactivity screen of Harvey et al. (2022).
# Test: yeast display, Sf9 membrane polyspecificity reagent, FACS + sequencing; frameworks hold sequencing errors
# Procedure, shortened: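 A synthetic nanobody library was expressed on Saccharomyces cerevisiae BJ5465 by galactose induction for 36–48 hours. The library was stained for 1 hour at 4 °C with 10% biotinylated, detergent-solubilized Sf9 membrane reagent and enriched with streptavidin microbeads before FACS. Low and high (top ~1%) gates were set on anti-HA fluorescence for expression and streptavidin fluorescence for reagent binding, and each polyreactivity label reflects the gate of origin.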
row,Sequence,polyreactivity (PSR sort gate)
1,QVQLVESGGGLVQAGGSLRLSCAASGRIFYNYAMGWYRQAPGKERELVAAISGSGGSTYYADSVKGRFTISRDNAKNTVYLQMNSLKPEDTAVYYCAADSYVSPEVRFDYWGQGTQVTVSS,low polyreactivity
2,QVQLVESGGGLVQAGGSLRLSCAASGRIFYPNAMGWYRQAPGKERELVAAISWSGGSTYYADSVKGRFTISRDNAKNTVYLQMNSLKPEDTAVYFCAAKPYQVSSYDFSLRDYWGQGTQVTVSS,low polyreactivity
3,QVQLVESGGGLVQAGGSLRLSCAASGRIFYPNAMGWYRQAPGKERELVAAISWSGGSTYYADSVKGRFTISRDNAKNTVYLQMNSLKPEDTAVYYCNAEYRYYQKTPGRYTNVEYDYWGQGTQVTVSS,low polyreactivity
4,QVQLVESGGGLVQAGGSLRLSCAASGRIFYPYAMGWYRQAPGKERELVAAISLSGGSTLYADSVKGRFTISRDNAKNTVYLQMNSLKPEDTAVYYCAADQRTRYQTRQYYYWGQGTQVTVSS,low polyreactivity
5,QVQLVESGGGLVQAGGSLRLSCAASGRIFYPYAMGWYRQAPGKERELVAAITSGGRTNYADSVKGRFTISRDNAKNTVYLQMNSLKPEDTAVYYCAATRFRHGKRMDYWGQGTQVTVSS,high polyreactivity
6,QVQLVESGGGLVQAGGSLRLSCAASGRIFYPYAMGWYRQAPGKERELVAAITTSSARTYYADSVKGRFTISRDNAKNTVYLQMNSLKPEDTAVYYCAVKRGYYTTYRGYGYWGQGTQVTVSS,high polyreactivity
7,QVQLVESGGGLVQAGGSLRLSCAASGRIFYPYAMGWYRQAPGKERELVAAITYSGGSTYYADSVKGRFTISRDNAKNTVYLQMNSLKPEDTAVYYCNAVQRGSFYLGKFGYWGQGTQVTVSS,high polyreactivity
8,QVQLVESGGGLVQAGGSLRLSCAASGRIFYQNAMGWYRQAPGKERELVAGITRGGSTYYADSVKGRFTISRDNAKNTVYLQMNSLKPEETAVYYCAVAFWRTKWYDYWGQGTQVTVSS,low polyreactivity
9,QVQLVESGGGLVQAGGSLRLSCAASGRIFYQYAMGWYRQAPGKERELVAAISWNGGRTYYADSVKGRFTISRDNAKNTVYLQMNSPKPEDTAVYYCNAVASKSFYYRDNYWGQGTQVTVSS,high polyreactivity
10,QVQLVESGGGLVQAGGSLRLSCAASGRIFYRNAMGWYRQAPGKDRELVAGISKRGGSTYYADSVKGRFTISRDNAKNTVYLQMTSLKPEDTAVYYCNKVSFLNSHKSRGNRYYYWGQGTQVTVSS,high polyreactivity
11,QVQLVESGGGLVQAGGSLRLSCAASGRIFYRNAMGWYRQAPGKEREFVAAITFRSGGTYYADSVKGRFTISRDNAKNTVYLQMNSLKPEDTAVYYCATRYLGASRYGYWGQGTQVTVSS,high polyreactivity
12,QVQLVESGGGLVQAGGSLRLSCAASGRIFYRNAMGWYRQAPGKERELVAAITWRGGSTYYADSVKGRFTISRDNAKNTVYLQMNSLKPEDTAVYYCNTRYGRIHWKANWPEYGYWGQGTQVTVSS,low polyreactivity
13,QVQLVESGGGLVQAGGSLRLSCAASGRIFYRNAMGWYRQAPGKERELVASITSGGRTNYADSVKGRFTISRDNAKNTVYLQMNSLKPEDTAVYYCAAPPPYSVRTFRFYYWGQGTQVTVSS,high polyreactivity
14,QVQLVESGGGLVQAGGSLRLSCAASGRIFYRNAMGWYRQAPGKERELVAVITSSSGSTYADSVKGRFTISRDNAKNTVYLQMNSLKPEDTAVYYCAAEEDYIYFYVSMDYWGQGTQVTVSS,low polyreactivity
15,QVQLVESGGGLVQAGGSLRLSCAASGRIFYRNAMGWYRQAPGQERELDAGITRGGSTNYADSVKGRFTISRDNAKNTVYLQMNSLKPEDTAVYYCAKAIPAKFYSEAGYDYWGQGTQVTVSS,low polyreactivity
16,QVQLVESGGGLVQAGGSLRLSCAASGRIFYRYAMGWYRQAPGKEREFVAAISGTGGSTYYADSVKGRFTISRDNAKNTVYLQMNSLKPEDTAVYYCAASVVSRPTYYAYYYWGQGTQVTVSS,high polyreactivity
17,QVQLVESGGGLVQAGGSLRLSCAASGRIFYRYAMGWYRQAPGKERELVAAISRTGSRTYYADSVKGRFTISRDNAKNTVYLQMNSLKPEDTAVYYCNKVSAPAEFRSRGYWGQGTQVTVSS,high polyreactivity
18,QVQLVESGGGLVQAGGSLRLSCAASGRIFYRYAMGWYRQAPGKERELVAAISSGGSTYYADSVKGRFTISRDNAKNTVYLQMNSLKPEDTAVYYCAATWGRGTYYLYYYWGQGTQVTVSS,high polyreactivity
19,QVQLVESGGGLVQAGGSLRLSCAASGRIFYRYAMGWYRQAPGKERELVAAISTSGARTYYADSVKGRFTISRDNAKIYVYLQMNSLKPVDTAVYYCAATATVSKFGYWGQGTQVTVSS,low polyreactivity
20,QVQLVESGGGLVQAGGSLRLSCAASGRIFYRYAMGWYRQAPGKERELVAAITGSGGSTYYADSVKGRFTISRDNAKNTVYLQMNSLKPEDTAVYYCNAVYARYGSQGYEYWGQGTQVTVSS,high polyreactivity

row,Sequence,polyreactivity (PSR sort gate)
1,QVQLVESGGGLVQAGGSLRLSCAASGRIFYRYAMGWYRQAPGKERELVAAITYSGGSTYYADSVKGRFTISRDNAKNTVYLQMNSLKPEDTAVYYCAAGGRGRPTTPPYGWYKLNYWGQGTQVTVSS,high polyreactivity
2,QVQLVESGGGLVQAGGSLRLSCAASGRIFYRYAMGWYRQAPGKERELVAGISNSGGSTYYADSVKGRFTISRDNAKNTVYLQMNSLKPADTAVYYCATGPSYRYDIGGGRIRYYYWGQGTQVSVSS,high polyreactivity
3,QVQLVESGGGLVQAGGSLRLSCAASGRIFYRYAMGWYRQAPGKERELVATISSGASTNYADSVKGRFTISRDNAKNTVYVQMNSLKPEDTADYYCARLSLRYSYVSRDYWGHGTQVTVSS,low polyreactivity
4,QVQLVESGGGLVQAGGSLRLSCAASGRIFYRYARGWYRQAPGKERELVAAITSGTSTNYADSVKGRFTFSRDNAKNTVYLQMNSLKPEDTAVYYCAKRYYCKYAEYDYWGQGTQVTVSS,high polyreactivity
5,QVQLVESGGGLVQAGGSLRLSCAASGRIFYSKVMGWYRQAPGKERELVAALSGRTGGTYYADSVKGRFTISRDNAKNTVYLQMNSLKPEDTAVYYCAARVLYYYGSGPYDYWGQGTQVTVSS,low polyreactivity
6,QVQLVESGGGLVQAGGSLRLSCAASGRIFYSNAMGWYRQAPGKERELVAAISRSGVRTYYADSVKGRFTISRDNAKNTVYLQMNSLKPEDTAVYYCAADLYWWSYYYWGQGTQVTVSS,low polyreactivity
7,QVQLVESGGGLVQAGGSLRLSCAASGRIFYSNAMGWYRQAPGKERELVAAISSSGGSTYYADSVKGRFTISRDNAKNTVDLQMNSLKPEDTAVYYCNAVHARYRSQGDYWGQGTQVTVSS,low polyreactivity
8,QVQLVESGGGLVQAGGSLRLSCAASGRIFYSNAMGWYRQAPGKERELVAANTSGGNTYYADSVKGRFTISRDNAKNTVYLLMNSLKPEDTAVYYCAADHYWRRSGFGYWGQGTQVTVSS,low polyreactivity
9,QVQLVESGGGLVQAGGSLRLSCAASGRIFYSNTMGWYRQAPGKVRELVAAISRRGGSTYYADSVKGRFTISRDNAKTTVYLQMNSLKPEDTALYYCNTGYSTRLHDYWGQGTQVTVSS,high polyreactivity
10,QVQLVESGGGLVQAGGSLRLSCAASGRIFYSYAMGWYREAPGKERELVARITRGSSTYYADSVKGRFTISRDNAKNTVYLQMNSLKPEDTAVYYCAKSRYTALTNHWSHDYWGQGTQVTVSS,low polyreactivity
11,QVQLVESGGGLVQAGGSLRLSCAASGRIFYSYAMGWYRQAPGKEREFVAAISYSGGSTYYADSVKGRFTISRDNAKNTVFLQMNSLKPEDTAVYYCAAKVKFYTYYYWGQGTQVTVSS,high polyreactivity
12,QVQLVESGGGLVQAGGSLRLSCAASGRIFYSYAMGWYRQAPGKERELVAAISSAGSTYYADSVKGRFTISRDNAKNTVYLQMNSLKPEDSAVYYCAAYRAGNSYYPRLNYWGQGTQVTVSS,high polyreactivity
13,QVQLVESGGGLVQAGGSLRLSCAASGRIFYSYGMGWYRQAPGKERELVATISIGGSTNYADSVKGRFTSSRDNAKNTVYLQMNSLKPEDTAVYYCNARAWFSYTSRRYTYWQEGYWGQGTQVTVSS,high polyreactivity
14,QVQLVESGGGLVQAGGSLRLSCAASGRIFYTNAMGWYRQAPGKERELVAGIRFNGGSTYYADSVKGRFTISRDNAKNTVYLQMNSLKPEDTAVYYCAVRTYYSGYDSWGQGTQVTVSS,low polyreactivity
15,QVQLVESGGGLVQAGGSLRLSCAASGRIFYTYAMGWYRQAPGKERELVAAINYSSASTYYADSVKGRFTISRDNAKNTVYLQMNSLKPEDTAVYYCNVAYVYGSFRRRPMGYWGQGTQVTVSS,high polyreactivity
16,QVQLVESGGGLVQAGGSLRLSCAASGRIFYTYAMGWYRQAPGKERELVAAITYRGGSTYYADSVKGRFTISRDNAKNTVYLQMNSLKPEDTAVYYCATQLWDRYGFGYWGQGTQVTVSS,high polyreactivity
17,QVQLVESGGGLVQAGGSLRLSCAASGRIFYVYAMGWYRQAPGKERELVAAITSSGGTTYYADSVKGRFTISRDNAKNTVYLQMNSLKPEDTAVYYCNLIYRYGWGDYWGQGTQVTVSS,high polyreactivity
18,QVQLVESGGGLVQAGGSLRLSCAASGRIFYVYTMGWYRQAPGKERELVASIRRSGGSTYYADSVKGRFTISRDNAKNTVYLQMNSLKPEDTAVYYCAARYNSAANDKRYYYWGQGTQVTVSS,high polyreactivity
19,QVQLVESGGGLVQAGGSLRLSCAASGRIFYWNVMGWYRQAPGKERELVAAISSSGASTSYADSVKGRFTISRDNAKNTVYLQMNSLKPEDTAVYHCAARTRRNYRQYNYWGQGTQVTVSS,high polyreactivity
20,QVQLVESGGGLVQAGGSLRLSCAASGRIFYYNAMGWYRPAPGKERELVAAINYRGGSTYYADSVKGRFTISRDNAKNTVYFQMNSLKPEDTAVYDCAARYWKDGSTYDYWGQGTQVTVSS,high polyreactivity
